These results are taken from patent publication US11833164B2, “Methods of treating Fabry disease in patients having a mutation in the GLA gene” (Amicus Therapeutics, Inc., priority 2019, dated 2023).

This experiment concerns mutant form of α-Gal A expressed in HEK-293 cells. The experiment in a line: HEK assay (GLP HEK / Migalastat Amenability Assay): α-Gal A activity in lysates of transiently transfected HEK-293 cells incubated with or without 10 μM migalastat. The format is cell-based, human. Conditions: for Absolute increase (% WT) / Relative increase: 10 μM migalastat versus baseline; for Baseline α-Gal A activity (% WT): absence of migalastat; for Baseline α-Gal A activity (% WT) / 10 μM migalastat α-Gal A activity (% WT): percentage of baseline wild-type α-Gal A activity; for 10 μM migalastat α-Gal A activity: incubated 5 days with 10 μM migalastat; for 10 μM migalastat α-Gal A activity (% WT): with 10 μM migalastat, 5 days. The method, boiled down:
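Activity reported as 4-MU released (nmol/mg/hr), mean±SEM, from lysates of transiently transfected HEK-293 cells expressing mutant α-Gal A, cultured with or without 10 μM migalastat.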

The mark [1] stands for this setting: lysates of HEK-293 cells transiently transfected with the mutant form, incubated 5 days in absence of migalastat, mean ± SEM.
Where [2] appears, read: lysates of HEK-293 cells transiently transfected with the mutant form, mean ± SEM.

Substitutions are numbered along the chain they refer to. In names and notes the source's numbering stands.

B1: D322A (protein)
chain: MQLRNPELHLGCALALRFLALVSWDIPGARALDNGLARTPTMGWLHWERFMCNLDCQEEPDSCISEKLFMEMAELMVSEGWKDAGYEYLCIDDCWMAPQRDSEGRLQADPQRFPHGIRQLANYVHSKGLKLGIYADVGNKTCAGFPGSFGYYDIDAQTFADWGVDLLKFDGCYCDSLENLADGYKHMSLALNRTGRSIVYSCEWPLYMWPFQKPNYTEIRQYCNHWRNFADIDDSWKSIKSILDWTSFNQERIVDVAGPGGWNDPDMLVIGNFGLSWNQQVTQMALWAIMAAPLFMSNDLRHISPQAKALLQDKDVIAINQAPLGKQGYQLRQGDNFEVWERPLSGLAWAVAMINRQEIGGPRSYTIAVASLGKGVACNPACFITQLLPVKRKLGFYEWTSRLRSHINPTGTVLLQLENTMQMSLKDLL
As to B1, the “Absolute increase (% WT)” value was found to be 15.3 % WT and the Relative increase came out at 3.2. For the setting “mean ± SEM”, the “Baseline α-Gal A activity (% WT)” value is 6.8 ± 0.4 % WT and the “10 μM migalastat α-Gal A activity (% WT)” value stood at 22.2 ± 1 % WT. The “Baseline α-Gal A activity” value under setting [1] came to 1908 ± 139 nmol/mg/h. For the same molecule, the “10 μM migalastat α-Gal A activity” value under setting [2] was 6170 ± 310 nmol/mg/h.

B2: L324V (protein)
chain: B1 chain with A322D, L324V
On to B2, for which the “Absolute increase (% WT)” value came out at 13.0 % WT and the Relative increase came to 1.2. Further, under “mean ± SEM”, the “Baseline α-Gal A activity (% WT)” value came to 57.2 ± 2.1 % WT and the “10 μM migalastat α-Gal A activity (% WT)” value is listed as 70.2 ± 2 % WT. Also, the “Baseline α-Gal A activity” value under setting [1] came to 17027 ± 1167 nmol/mg/h. Further, the “10 μM migalastat α-Gal A activity” value under setting [2] was found to be 20866 ± 1331 nmol/mg/h.

B3: Y329H (protein)
chain: B1 chain with A322D, Y329H
B3: the “Absolute increase (% WT)” value came to 16.2 % WT and the Relative increase stood at 1.4. Besides, where the note is “mean ± SEM”, the “Baseline α-Gal A activity (% WT)” value came out at 47.2 ± 3.8 % WT and the “10 μM migalastat α-Gal A activity (% WT)” value was determined as 63.4 ± 2.6 % WT. For the same molecule, under setting [1], the “Baseline α-Gal A activity” value is 13757 ± 963 nmol/mg/h. In addition, under setting [2], the “10 μM migalastat α-Gal A activity” value was found to be 18672 ± 772 nmol/mg/h.

B4: K326M (protein)
chain: B1 chain with A322D, K326M
B4: the “Absolute increase (% WT)” value came out at 63.2 % WT and the Relative increase amounted to 3.7. Further, under “mean ± SEM”, the “Baseline α-Gal A activity (% WT)” value was found to be 24.4 ± 1.6 % WT and the “10 μM migalastat α-Gal A activity (% WT)” value turned out to be 87.6 ± 3.5 % WT. Also, the “Baseline α-Gal A activity” value under setting [1] came out at 8482 ± 500 nmol/mg/h. For the same molecule, the “10 μM migalastat α-Gal A activity” value under setting [2] worked out at 31204 ± 1979 nmol/mg/h.

B5: K326T (protein)
chain: B1 chain with A322D, K326T
As to B5, the “Absolute increase (% WT)” value stood at 26.4 % WT and the Relative increase is reported as 1.4. Moreover, where the note is “mean ± SEM”, the “Baseline α-Gal A activity (% WT)” value was 69.6 ± 2.4 % WT and the “10 μM migalastat α-Gal A activity (% WT)” value came to 96 ± 3.7 % WT. Also, the “Baseline α-Gal A activity” value under setting [1] is 19442 ± 739 nmol/mg/h. The “10 μM migalastat α-Gal A activity” value under setting [2] was 26653 ± 877 nmol/mg/h.

B6: Y329C (protein)
chain: B1 chain with A322D, Y329C
For the molecule B6, the “Absolute increase (% WT)” value came out at 7.8 % WT and the Relative increase is given as 1.3. Moreover, for the setting “mean ± SEM”, the “Baseline α-Gal A activity (% WT)” value is given as 31.2 ± 1.5 % WT and the “10 μM migalastat α-Gal A activity (% WT)” value is on record as 38.9 ± 1.6 % WT. For the same molecule, under setting [1], the “Baseline α-Gal A activity” value was 9148 ± 414 nmol/mg/h. Further, the “10 μM migalastat α-Gal A activity” value under setting [2] was 11442 ± 480 nmol/mg/h.

B7: K326E (protein)
chain: B1 chain with A322D, K326E
On to B7, for which the “Absolute increase (% WT)” value is on record as 25.3 % WT and the Relative increase worked out at 1.4. Besides, under “mean ± SEM”, the “Baseline α-Gal A activity (% WT)” value was 55.6 ± 2.6 % WT and the “10 μM migalastat α-Gal A activity (% WT)” value was found to be 80.9 ± 3.9 % WT. For the same molecule, the “Baseline α-Gal A activity” value under setting [1] was 15541 ± 832 nmol/mg/h. Further, the “10 μM migalastat α-Gal A activity” value under setting [2] was 22340 ± 828 nmol/mg/h.

B8: K326R (protein)
chain: B1 chain with A322D, K326R
Regarding B8, the “Absolute increase (% WT)” value is 48.0 % WT and the Relative increase is 1.8. Further, where the note is “mean ± SEM”, the “Baseline α-Gal A activity (% WT)” value is 61.7 ± 3.4 % WT and the “10 μM migalastat α-Gal A activity (% WT)” value is listed as 109.7 ± 2.9 % WT. Under setting [1], the “Baseline α-Gal A activity” value stood at 17744 ± 923 nmol/mg/h. In addition, the “10 μM migalastat α-Gal A activity” value under setting [2] amounted to 31690 ± 1112 nmol/mg/h.

B9: L324W (protein)
chain: B1 chain with A322D, L324W
As for B9, the “Absolute increase (% WT)” value came out at 19.8 % WT and the Relative increase stood at 1.3. Moreover, where the note is “mean ± SEM”, the “Baseline α-Gal A activity (% WT)” value is recorded as 73.5 ± 1.8 % WT and the “10 μM migalastat α-Gal A activity (% WT)” value turned out to be 93.3 ± 4.5 % WT. In addition, the “Baseline α-Gal A activity” value under setting [1] was determined as 20623 ± 721 nmol/mg/h. Moreover, under setting [2], the “10 μM migalastat α-Gal A activity” value is 25772 ± 1045 nmol/mg/h.

B10: D322V (protein)
chain: B1 chain with A322V
With B10, the “Absolute increase (% WT)” value was 11.7 % WT and the Relative increase is 5.6. In addition, where the note is “mean ± SEM”, the “Baseline α-Gal A activity (% WT)” value worked out at 2.6 ± 0.2 % WT and the “10 μM migalastat α-Gal A activity (% WT)” value came to 14.3 ± 0.6 % WT. Besides, the “Baseline α-Gal A activity” value under setting [1] amounted to 714 ± 53 nmol/mg/h. The “10 μM migalastat α-Gal A activity” value under setting [2] amounted to 3989 ± 217 nmol/mg/h.

B11: Y329F (protein)
chain: B1 chain with A322D, Y329F
Take B11: the “Absolute increase (% WT)” value came to 16.6 % WT and the Relative increase is 1.5. Further, for the setting “mean ± SEM”, the “Baseline α-Gal A activity (% WT)” value stood at 30.6 ± 1.5 % WT and the “10 μM migalastat α-Gal A activity (% WT)” value was found to be 47.1 ± 2.8 % WT. Moreover, the “Baseline α-Gal A activity” value under setting [1] was 10368 ± 646 nmol/mg/h. Further, the “10 μM migalastat α-Gal A activity” value under setting [2] was 15566 ± 603 nmol/mg/h.

B12: Y329D (protein)
chain: B1 chain with A322D, Y329D
As to B12, the “Absolute increase (% WT)” value came out at 12.5 % WT and the Relative increase was 3.9. For the same molecule, where the note is “mean ± SEM”, the “Baseline α-Gal A activity (% WT)” value was determined as 4.2 ± 0.2 % WT and the “10 μM migalastat α-Gal A activity (% WT)” value is on record as 16.7 ± 0.6 % WT. Also, under setting [1], the “Baseline α-Gal A activity” value worked out at 1249 ± 66 nmol/mg/h. Besides, under setting [2], the “10 μM migalastat α-Gal A activity” value turned out to be 4917 ± 181 nmol/mg/h.

B13: G325C (protein)
chain: B1 chain with A322D, G325C
B13: the “Absolute increase (% WT)” value is 34.5 % WT and the Relative increase was determined as 1.7. Moreover, under “mean ± SEM”, the “Baseline α-Gal A activity (% WT)” value worked out at 51.4 ± 1.7 % WT and the “10 μM migalastat α-Gal A activity (% WT)” value is 85.9 ± 4 % WT. For the same molecule, under setting [1], the “Baseline α-Gal A activity” value was found to be 14482 ± 695 nmol/mg/h. For the same molecule, under setting [2], the “10 μM migalastat α-Gal A activity” value stood at 23873 ± 1021 nmol/mg/h.

B14: K326Q (protein)
chain: B1 chain with A322D, K326Q
In the case of B14, the “Absolute increase (% WT)” value is recorded as 26.1 % WT and the Relative increase is reported as 1.3. Moreover, for the setting “mean ± SEM”, the “Baseline α-Gal A activity (% WT)” value was 78 ± 3 % WT and the “10 μM migalastat α-Gal A activity (% WT)” value is on record as 104.1 ± 5.7 % WT. Under setting [1], the “Baseline α-Gal A activity” value came out at 22075 ± 1209 nmol/mg/h. The “10 μM migalastat α-Gal A activity” value under setting [2] was found to be 29168 ± 1869 nmol/mg/h.

B15: Q327H (protein)
chain: B1 chain with A322D, Q327H
For the molecule B15, the “Absolute increase (% WT)” value is 7.4 % WT. Moreover, the “Baseline α-Gal A activity (nmol/mg/hr)” value under setting [1] is “BLD (“BLD” indicates that the mean α-Gal A activity was below the limit of detection (<142 nmol/mg/hr))”. In addition, under setting [2], the “10 μM migalastat α-Gal A activity” value is 2197 ± 226 nmol/mg/h. Under “mean ± SEM”, the “10 μM migalastat α-Gal A activity (% WT)” value stood at 7.4 ± 0.7 % WT.

B16: G325V (protein)
chain: B1 chain with A322D, G325V
B16: the “Absolute increase (% WT)” value is recorded as 17.1 % WT and the Relative increase was 9.3. Further, for the setting “mean ± SEM”, the “Baseline α-Gal A activity (% WT)” value came to 2.2 ± 0.2 % WT and the “10 μM migalastat α-Gal A activity (% WT)” value is reported as 19.3 ± 1.1 % WT. Besides, the “Baseline α-Gal A activity” value under setting [1] turned out to be 572 ± 30 nmol/mg/h. Further, the “10 μM migalastat α-Gal A activity” value under setting [2] is 5333 ± 294 nmol/mg/h.

B17: G325A (protein)
chain: B1 chain with A322D, G325A
For B17, the “Absolute increase (% WT)” value is given as 34.4 % WT and the Relative increase came out at 1.5. In addition, where the note is “mean ± SEM”, the “Baseline α-Gal A activity (% WT)” value turned out to be 64.9 ± 3.8 % WT and the “10 μM migalastat α-Gal A activity (% WT)” value was determined as 99.2 ± 5.4 % WT. Besides, the “Baseline α-Gal A activity” value under setting [1] worked out at 18183 ± 1254 nmol/mg/h. For the same molecule, under setting [2], the “10 μM migalastat α-Gal A activity” value turned out to be 27523 ± 1456 nmol/mg/h.

B18: Q327P (protein)
chain: B1 chain with A322D, Q327P
Regarding B18, the “Absolute increase (% WT)” value is listed as 36.4 % WT and the Relative increase was 2.4. In addition, for the setting “mean ± SEM”, the “Baseline α-Gal A activity (% WT)” value was 26.2 ± 1.8 % WT and the “10 μM migalastat α-Gal A activity (% WT)” value came to 62.6 ± 3.1 % WT. In addition, the “Baseline α-Gal A activity” value under setting [1] was found to be 7775 ± 561 nmol/mg/h. Moreover, the “10 μM migalastat α-Gal A activity” value under setting [2] was found to be 18612 ± 1075 nmol/mg/h.
